Target: HLA-B*07 (human)
Experiment: UV peptide exchange ELISA; ++++ = yield >75%

| Binder | peptide exchange yield |
| --- | --- |
| SPSSASLTL | > 75% |
| RPKSTLMNF | > 75% |
| LPQLKPAL | > 75% |
| RPKHFLQML | > 75% |
| GPRTTQSSVL | > 75% |
| FPVQATIDF | > 75% |
| QPSLKKIIL | > 75% |
| VPKSLPYVL | > 75% |
| LPTDLFNSVM | > 75% |
| APALPGQVTI | > 75% |
| NPASRLTAL | > 75% |
| MPYNSAHHCVV | > 75% |
| APMHIDRNIL | > 75% |
| LPAPTSLVL | > 75% |
| SPASRSISLL | > 75% |
| SPSFSSTLLSL | > 75% |
| TPHGITDIL | > 75% |
| APRLALDPDAL | > 75% |
| IPTSRVITL | > 75% |
| APLMPLGKTL | > 75% |
| MVLGIGPVL | > 75% |
| LPAFSKIGGIL | > 75% |
| GPRQVLFPL | > 75% |
| LPAPLRISL | > 75% |
| APSRLLEL | > 75% |

| Binder | peptide exchange yield |
| --- | --- |
| SPLEKINSF | > 75% |
| SPTLRQLDL | > 75% |
| VPILPLNHAL | > 75% |
| APVVFPAL | > 75% |
| RPGPQRTTSV | > 75% |
| VPRNQDWLGVSRQL | > 75% |
| VPIPTHYFVVL | > 75% |
| SPYGSDRLVQL | > 75% |
| RPKTSVNLISSL | > 75% |
| QPVKKNTL | > 75% |
| RPPLSQRHTF | > 75% |
| SPMEAILVSRL | > 75% |
| KPRTPFTTA | > 75% |
| LPRGVLEGL | > 75% |
| LPSLHVLVL | > 75% |
| SPRQPRLDF | > 75% |
| TPISNTGVL | > 75% |
| YPLSLALHF | > 75% |
| MPLLADVRL | > 75% |
| APQVHIFSL | > 75% |
| MPHLGPGILL | > 75% |
| SPDPAHLESL | > 75% |
| SPAPWRPWI | > 75% |
| RPYGCVLRAA | > 75% |
| RPLDTFRVL | > 75% |

| Binder | peptide exchange yield |
| --- | --- |
| QPRDGWPMML | > 75% |
| FPQVGRTAL | > 75% |
| SPGWAQTQL | > 75% |
| LPLDTRTSI | > 75% |
| IPMPRITWL | > 75% |
| LPRSPPLKVL | > 75% |
| LPGEREAAL | > 75% |
| APAKDARASL | > 75% |
| SPRSNPVRL | > 75% |
| VPLSSYVSI | > 75% |
| RPNGEVKSEL | > 75% |
| VPYPSPTCV | > 75% |
| KPRTPFTTAQL | > 75% |
| APKFISPASQL | > 75% |
| APHAGGALL | > 75% |
| SPRRLVELAGQSL | > 75% |
| RPFSAIAEL | > 75% |
| SPYPGSAAF | > 75% |
| SPYAGSTAF | > 75% |
| KPRNMTGLDL | > 75% |
| NPVPVITWYKDNRL | > 75% |
| APKTSFIAA | > 75% |
| APLRVHITSL | > 75% |
| VPKADLLTL | > 75% |
| VPRPTSTVGLFL | > 75% |

— patent US20200040057A1 (IMMATICS BIOTECHNOLOGIES, published 2020)
